1 molecule from patent US20250297032A1 (CONCEPT TO MEDICINE BIOTECH, published 2025) can be followed below.

In this test the target is T1, mouse FAPα-His protein (mouse, UniProt P97321 26-761, limits assumed).
T1 construct: not shown: His tag
T1 sequence (looked up): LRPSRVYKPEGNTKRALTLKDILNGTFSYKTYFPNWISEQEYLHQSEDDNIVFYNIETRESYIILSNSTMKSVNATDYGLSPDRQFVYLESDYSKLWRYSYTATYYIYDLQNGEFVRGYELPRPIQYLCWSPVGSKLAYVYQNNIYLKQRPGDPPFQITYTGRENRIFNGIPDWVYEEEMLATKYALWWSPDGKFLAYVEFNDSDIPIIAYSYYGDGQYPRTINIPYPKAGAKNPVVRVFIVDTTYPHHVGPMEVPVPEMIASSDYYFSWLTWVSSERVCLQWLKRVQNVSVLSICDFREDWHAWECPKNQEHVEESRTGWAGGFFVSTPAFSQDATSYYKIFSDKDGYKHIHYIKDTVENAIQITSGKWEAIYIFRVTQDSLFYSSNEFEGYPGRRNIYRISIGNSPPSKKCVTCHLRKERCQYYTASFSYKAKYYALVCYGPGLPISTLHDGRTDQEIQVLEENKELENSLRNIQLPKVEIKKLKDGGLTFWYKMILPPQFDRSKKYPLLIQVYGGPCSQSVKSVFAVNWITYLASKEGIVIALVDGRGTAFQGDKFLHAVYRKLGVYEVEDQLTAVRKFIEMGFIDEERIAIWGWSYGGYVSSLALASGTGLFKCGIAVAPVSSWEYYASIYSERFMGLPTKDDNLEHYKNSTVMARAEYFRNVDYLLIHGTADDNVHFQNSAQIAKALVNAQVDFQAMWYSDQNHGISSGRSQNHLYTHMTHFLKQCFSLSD
Nature of the test: ELISA, coated mouse FAPα-His. The procedure: Briefly, microtiter plates were coated with mouse FAPα-His protein at 0.5 ug/ml in PBS, 100 μl/well at 4° C. overnight, then blocked with 150 μl/well of 1% BSA. Three-fold dilutions of tested antibodies starting from 1 μg/ml were added to each well and incubated for 1 hour at 37° C. The plates were washed with PBS/Tween and then incubated with Anti-Human IgG (H&L) (GOAT) Antibody Peroxidase Conjugated for 30 mins at 37° C. After washing, the plates were developed with TMB substrate and analyzed by spectrophotometer at OD 450 nm.

B1: I37 (antibody, V domains shown)
VH: QLQLVESGGGLVQPGGSLRLSCAASGFTFSSYAMSWVRQAPGKGLEWVSAISGSGGSTYYADSVKGRFTISRDNSKNTLYLQMNSLRAEDTAVYYCARDKPWGGSFDYWGQGTLVTVSA
VL: DIQLTQSPSSLSASVGDRVTITCRASQGISSWLAWYQQKPGKAPKLLIYAASSLQSGVPSRFSGSGSGTDFTLTISSLQPEDFATYYCQQANSFPVTFGPGTKVDIK
notes: Tested as a mAb; also called FAP-I37
B1 returned an EC50 of 5.2 ng/mL.
